Values quoted from earlier work as cited in patent US20060234934A1, “Composition and Method for Selective Cytostasis” (priority 2005, published 2006).

Tested on: human embryonic palatal mesenchymal cells

B1: EGF: Epidermal Growth Factor (protein, UniProt P01133 23-1207, looked up)
Pro-epidermal growth factor: PQHWSCPEGTLAGNGNSTCVGPAPFLIFSHGNSIFRIDTEGTNYEQLVVDAGVSVIMDFHYNEKRIYWVDLERQLLQRVFLNGSRQERVCNIEKNVSGMAINWINEEVIWSNQQEGIITVTDMKGNNSHILLSALKYPANVAVDPVERFIFWSSEVAGSLYRADLDGVGVKALLETSEKITAVSLDVLDKRLFWIQYNREGSNSLICSCDYDGGSVHISKHPTQHNLFAMSLFGDRIFYSTWKMKTIWIANKHTGKDMVRINLHSSFVPLGELKVVHPLAQPKAEDDTWEPEQKLCKLRKGNCSSTVCGQDLQSHLCMCAEGYALSRDRKYCEDVNECAFWNHGCTLGCKNTPGSYYCTCPVGFVLLPDGKRCHQLVSCPRNVSECSHDCVLTSEGPLCFCPEGSVLERDGKTCSGCSSPDNGGCSQLCVPLSPVSWECDCFPGYDLQLDEKSCAASGPQPFLLFANSQDIRHMHFDGTDYGTLLSQQMGMVYALDHDPVENKIYFAHTALKWIERANMDGSQRERLIEEGVDVPEGLAVDWIGRRFYWTDRGKSLIGRSDLNGKRSKIITKENISQPRGIAVHPMAKRLFWTDTGINPRIESSSLQGLGRLVIASSDLIWPSGITIDFLTDKLYWCDAKQSVIEMANLDGSKRRRLTQNDVGHPFAVAVFEDYVWFSDWAMPSVMRVNKRTGKDRVRLQGSMLKPSSLVVVHPLAKPGADPCLYQNGGCEHICKKRLGTAWCSCREGFMKASDGKTCLALDGHQLLAGGEVDLKNQVTPLDILSKTRVSEDNITESQHMLVAEIMVSDQDDCAPVGCSMYARCISEGEDATCQCLKGFAGDGKLCSDIDECEMGVPVCPPASSKCINTEGGYVCRCSEGYQGDGIHCLDIDECQLGEHSCGENASCTNTEGGYTCMCAGRLSEPGLICPDSTPPPHLREDDHHYSVRNSDSECPLSHDGYCLHDGVCMYIEALDKYACNCVVGYIGERCQYRDLKWWELRHAGHGQQQKVIVVAVCVVVLVMLLLLSLWGAHYYRTQKLLSKNPKNPYEESSRDVRSRRPADTEDGMSSCPQPWFVVIKEHQDLKNGGQPVAGEDGQAADGSMQPTSWRQEPQLCGMGTEQGCWIPVSSDKGSCPQVMERSFHMPSYGTQTLEGGVEKPHSLLSANPLWQQRALDPPHQMELTQ
modifications: Pro-epidermal growth factor
stimulation of incorporation of 3[H]-thymidine into newly synthesized DNA: a little more than twofold
